Measured values taken from paper PMC12610585.

Substrate: O=[N+]([O-])c1ccc(O[C@H]2O[C@H](CO)[C@H](O)[C@H](O)[C@H]2O)cc1
Experiment: purified protein
Settings: optimized conditions: 37 °C, pH 6.0, 10 min, 0-8 mM substrate

B1: Amuc_0517 (Akkermansia muciniphila ATCC BAA-835) (protein)
chain: QPRTTAILPVPGEKACRLPLPPYQAFCWFSADRGRWPGDGNRVLPWFGRTAPGNLLDSKPNPSTAKPGDHAMFALFHLKDGNFMAVLPVAAPDSLAWLKLERDGTFLVEAGSLGTSPAKPQAVLAVTATDKDIYRACSAVWDKALSLPFIKGRTLPREKKIYPEPFKYLGWCSWEQYKKNISSKLLEETARKLEASPVPVRWMLVDDGFQTQERLQLVSFQPRQDQFPRGWQPLMKHKSPKLKWMGLWHCYYGLWNGIHPRHRLDDETARGLVRTAKGKILPGDGSGGAGAFYTPFLQSVKDTGFDFVKIDVQAEYLKHADGLDNPVRHNTKCSEALEQACLKTGLSLVNCMAQGTVNIQNTRYSAVTRCSIDYKLGDEAMAKSHILQSYANTLWLGQTVWPDHDMFHSTDPACARLMAVSKAVSGGPVYLSDPADKLNPENIMPLVWSDGLLLRPLAPAVPLPDSVFPDALNENRLYRVIAPLPGQSAAVVVYNLKHPSPAEPVRGKISLEDYKNAAALLNGNAAEAYASLPAEGIAAYSAEGGRALTPAQPDLDVELTGFKDRLFIMAPIVQGWAVIGRRDKFLSPCALVSAPGYRENGLRFRVKESGPVVIWRGKGPVKAGNTPVRNLGNGFYELQFPVSDHPLDITVTAE
Protein B1 has a Km of 8.2 mM.
